Measured values from paper PMC3510474, “Distinct gating mechanisms revealed by the structures of a multi-ligand gated K^+ channel” (eLife, 2012).

Key:
[1] = molecular target: GsuK intracellular subunit (Geobacter sulfurreducens); assay: crystal structure; GsuK intracellular subunit, about 8 mg/ml in LDAO, sitting drop at 20°C, 20–23% PEG3350, 120 mM KCl, 80 mM NaNO3, 1% glycerol, 100 mM Bis-Tris propane pH 8.5; space group I222, four subunits forming a gating ring in the asymmetric unit; 3.0 Å
[2] = molecular target: GsuK intracellular subunit (Geobacter sulfurreducens); assay: SEC; Superdex-200 (10/30) in 50 mM Tris–HCl pH 8.0, 250 mM KCl, 2 mM DTT, 4 mM LDAO (GsuK intracellular subunit)
[3] = molecular target: full-length GsuK channel, L97D mutant (Geobacter sulfurreducens); assay: crystal structure; full-length channel in DM with E. coli polar lipids, about 6 mg/ml, 20°C, 13–18% PEG3350, 250–500 mM KSCN, 100 mM CHES pH 9.0; space group C2, four subunits in the asymmetric unit as two half channels; L97D also co-crystallised with 1 mM ADP or NAD+
GsuK [4] = molecular target: T1, GsuK (Geobacter sulfurreducens, UniProt Q74FS9, E52A/L97D, form not given); assay: X-ray crystal structure, […] Å (co-crystallization); type: binding; settings: 1 mM ADP, pH 9.0; Ca2+-bound closed gating ring; nucleotide site on RCK2; allosteric
T1 construct: gene GSU0527; full-length channel from Ala9 with extra N-terminal MQRGS; C-terminal His-tag cut by thrombin; E. coli BL21(DE3); tetramer; model residues 17-564
T1 sequence (Q74FS9 entry or part of it E52A/L97D, form open): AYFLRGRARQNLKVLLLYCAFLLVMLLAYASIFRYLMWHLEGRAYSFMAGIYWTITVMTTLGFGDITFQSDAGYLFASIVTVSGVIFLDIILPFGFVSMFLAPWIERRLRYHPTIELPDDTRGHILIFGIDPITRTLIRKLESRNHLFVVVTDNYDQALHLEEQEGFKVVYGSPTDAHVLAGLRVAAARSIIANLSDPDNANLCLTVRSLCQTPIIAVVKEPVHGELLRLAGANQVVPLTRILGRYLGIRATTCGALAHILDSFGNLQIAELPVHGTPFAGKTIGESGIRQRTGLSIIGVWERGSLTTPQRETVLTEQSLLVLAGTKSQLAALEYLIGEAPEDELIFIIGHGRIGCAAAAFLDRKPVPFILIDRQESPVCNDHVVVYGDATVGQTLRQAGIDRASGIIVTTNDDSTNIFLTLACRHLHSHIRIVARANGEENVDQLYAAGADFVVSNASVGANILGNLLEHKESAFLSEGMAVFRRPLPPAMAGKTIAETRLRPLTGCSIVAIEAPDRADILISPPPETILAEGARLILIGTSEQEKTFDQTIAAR

GsuK [5] = molecular target: T1, GsuK; assay: X-ray crystal structure, […] Å (co-crystallization); type: binding; settings: 1 mM NAD+, pH 9.0; Ca2+-bound closed gating ring; nucleotide site on RCK2, nicotinamide beneath RCK1 helix αF; partial occupancy; allosteric
[6] = molecular target: full-length GsuK channel, wild type (with E52A and Q77E or R) (Geobacter sulfurreducens); assay: crystal structure; full-length channel in DM with E. coli polar lipids, about 6 mg/ml, 20°C, 13–18% PEG3350, 250–500 mM KSCN, 100 mM CHES pH 9.0; space group C2, four subunits in the asymmetric unit as two half channels; L97D also co-crystallised with 1 mM ADP or NAD+
[7] = molecular target: full-length GsuK channel, wild type (with E52A and Q77E or R) (Geobacter sulfurreducens); assay: SEC; Superdex-200 (10/30) in 20 mM CHES pH 9.0, 150 mM KSCN, 0.1 mg/ml E. coli polar lipid, 2 mM DTT, 4 mM DM (full-length GsuK channel)

Compound “GsuK intracellular subunit (domain or fragment)” has a stoichiometry N [1] of 4 and a stoichiometry N [2] of 4.
In the case of “full-length GsuK channel, L97D mutant (natural protein)”, the stoichiometry N [3] is reported as 4.
In the case of `Nc1ncnc2c1ncn2[C@@H]1O[C@H](COP(=O)(O)OP(=O)(O)O)[C@@H](O)[C@H]1O` [ADP], the “X-ray crystal structure, 2.8 Å (co-crystallization)” value (GsuK [4]) is reported as “we also co-crystallized the L97D mutant with ADP and NAD^+”.
For `NC(=O)c1ccc[n+]([C@@H]2O[C@H](COP(=O)(O)OP(=O)(O)OC[C@H]3O[C@@H](n4cnc5c(N)ncnc54)[C@H](O)[C@@H]3O)[C@@H](O)[C@H]2O)c1` [NAD^+], the “X-ray crystal structure, 3.2 Å (co-crystallization)” value (GsuK [5]) was “we also co-crystallized the L97D mutant with ADP and NAD^+”.
In the case of “full-length GsuK channel, wild type (with E52A and Q77E or R) (natural protein)”, the stoichiometry N [6] is reported as 4 and the stoichiometry N [7] is reported as 4.
